The source of these data is patent US20020103136.

Data set [1] relates to Ac-SChgQSS-Sar-(HCAP)-dAc-VIN.
Data set [2] deals with Ac-SChgQSS(PIP)-(HCAP)-dAc-VIN.
Data set [3] relates to Ac-(4-trans-L-Hyp)SSChgQ-SPheol-(dAc)-VIN.
For data set [4], the system named is Ac-SChgQSS-gammaAbu-(HCAP)-dAc-VIN.
For data set [5], the system named is Ac-4-trans-L-HypSSChgQS-cyclohexylalaninol-(dAc)-VIN.
Data set [6] relates to Ac-SChgQ-SP-(HCAP)-(dAc)-VIN.
For data set [7], the system named is Ac-4-trans-L-Hyp-SSChgQ-SS-(HCAP)-(dAc)-VIN.
Data set [8] concerns Ac-SSChgQ-SP-(HCAP)-(dAc)-VIN.
Data set [9] deals with N-hydroxyacetyl-AbuSSChgQ-SP-(HCAP)-(dAc)-VIN.
For data set [10], the system named is Ac-SChgQ-SS(4-trans-L-Hyp)-(HCAP)-dAc-VIN.
The test system of data set [11] is Ac-AbuSSChgQ-SP-(HCAP)-(dAc)-VIN.
For data set [12], the system named is Ac-4-trans-L-HypSSChgQSP(HCAP)-VIN.
For data set [13], the system named is Ac-SSChgQ-SSP-(HCAP)-dAc-VIN.
In data set [14] the test system is Ac-AbuSSChgQ-S-(HCAP)-VIN.

As for free prostate specific antigen (PSA), the Time to 50% Substrate Cleavage by York PSA in the data set on Ac-SChgQ-SSP-(HCAP)-VIN is 8 min; in data set [1], 13 min; in [2], 22 min; in data set [3], 25 min; in [4], 12 min; in the data set with Ac-SChgQS-Abu-(HCAP)-VIN, 60 min. For the same substance, the Time to 50% Substrate Cleavage by York PSA in data set [5] is 10 min; in [6], 13 min; with Ac-SChgQSS(HCAP)-dAc-VIN it was 12 min; in [7], 17 min; in data set [8] it was 30 min; in data set [9], 11 min. In addition, the Time to 50% Substrate Cleavage by York PSA in [10] came out at 7 min; in data set [11] it was 18 min; in [12] it was 8 min; in [13], 8 min. Moreover, the “Substrate cleavage by York PSA at 1 hour (printed in the column 'Time to 50% Substrate Cleavage by York PSA (Min)')” value in data set [14] was 1 HOUR = 28%.
